Measurements reported in patent US20250144141A1 (CDR LIFE, published 2025).

How the values were obtained:
[1] = target: T1, HLA-A*02:01/MAGE-A4 complex (human, UniProt P04439 25-299 at identity 0.94); P61769 21-119); test: SPR (Biacore T200), HLA-A*02:01/MAGE-A4 as ligand; sample kept in human serum at 37 C for 0, 7 and 24 h and injected after 1:100 dilution; signal relative to the start sample
T1 construct: Coated on ELISA plates and on a streptavidin SPR chip; a biotin tag is not described; also called HLA-A2/MAGE-A4 complex; pMHC-MAGE-A4

[2] = target: HLA-A*02:01/MAGE-A4 displayed on T2 cells (human); test: cell-based or functional assay
[3] = target: T1, HLA-A*02:01/MAGE-A4 complex; test: SPR
[4] = target: T1, HLA-A*02:01/MAGE-A4 complex; test: direct ELISA, plate coated with HLA-A*02:01/MAGE-A4 complex, as in Example 6

Row | Kd [3] [nM] | Binder | other results
1 | – | M1397 (bispecific antibody, Fab(scFv)2 dual pMHC-targeting T cell engager, no Fc; also called dual engager M1397; dual T cell engager M1397) heavy: EVQLVESGGGLVQPGGSLRLSCAASGFTFSTYAMNWVRQAPGKGLEWVGRIRSKYNNYATYYADSVKGRFTISRDDSKNTLYLQMNSLRAEDTAVYYCVRHGNFGDSYVSWFAYWGQGTLVTVSSASTKGPSVFPLAPSSKSTSGGTAALGCLVKDYFPEPVTVSWNSGALTSGVHTFPAVLQSSGLYSLSSVVTVPSSSLGTQTYICNVNHKPSNTKVDKRVEPKSCGGGGSQSVLTQDPAVSVALGQTVRITCTADTLSRSYASWYQQKPGQAPVLVIYRDTSRPSGIPDRFSGSSSGNTASLTITGAQAEDEADYYCATRPSSGSNFQAFGGGTKLTVLGGGGGSGGGGSGGGGSGGGGSEVQLLESGGGSVQPGGSLRLSCTVSGFSLSNYAMSWVRQAPGKGLEWIGIVSSGGTTYYADSVKGRFTISRDNSKNTVYLQMNSLRAEDTASYYCAKDLYYGPNTDYSAANLWGQGTSVTVSS light: QAVVTQEPSLTVSPGGTVTLTCGSSTGAVTTSNYANWVQQKPGKSPRGLIGGTNKRAPGVPARFSGSLLGGKAALTISGAQPEDEADYYCALWYSNHWVFGGGTKLTVLGQPKAAPSVTLFPPSSEELQANKATLVCLISDFYPGAVTVAWKADSSPVKAGVETTTPSKQSNNKYAASSYLSLTPEQWKSHRSYSCQVTHEGSTVEKTVAPTECSGGGGSQSVLTQDPAVSVALGQTVRITCTADTLSRSYASWYQQKPGQAPVLVIYRDTSRPSGIPDRFSGSSSGNTASLTITGAQAEDEADYYCATRPSSGSNFQAFGGGTKLTVLGGGGGSGGGGSGGGGSGGGGSEVQLLESGGGSVQPGGSLRLSCTVSGFSLSNYAMSWVRQAPGKGLEWIGIVSSGGTTYYADSVKGRFTISRDNSKNTVYLQMNSLRAEDTASYYCAKDLYYGPNTDYSAANLWGQGTSVTVSS | binding result [1]: binds; IFN-gamma release (T cell activation) with PBMCs and T2 cells pulsed with titrated peptide, compound at 1 nM; EC50 on the peptide concentration [2]: 5.75 nM
2 | 1 | M1068 (bispecific antibody) chain 1: SYELTQPPSVSVSPGQTASITCTADTLSRSYASWYQQKPGQSPVLVIYRDTSRPSGIPERFSGSNSGNTATLTISGTQAMDEADYYCATRPSSGSNFQLFGGGTKLTVLGGGGGGSGGGGSGGGGSGGGGSEVQLLESGGGSVQPGGSLRLSCTVSGFSLSNYAMSWVRQAPGKGLEWIGIVSSGGTTYYASWAKGRFTISKDTSKNTVYLQMNSLRAEDTASYYCAKDLYYGPTTYSAFNLWGQGTSVTVSS chain 2: EVQLVESGGGLVQPGGSLRLSCAASGFTFSTYAMNWVRQAPGKGLEWVGRIRSKYNNYATYYADSVKGRFTISRDDSKNTLYLQMNSLRAEDTAVYYCVRHGNFGDSYVSWFAYWGQGTLVTVSSASTKGPSVFPLAPSSKSTSGGTAALGCLVKDYFPEPVTVSWNSGALTSGVHTFPAVLQSSGLYSLSSVVTVPSSSLGTQTYICNVNHKPSNTKVDKRVEPKSC chain 3: QAVVTQEPSLTVSPGGTVTLTCGSSTGAVTTSNYANWVQQKPGKSPRGLIGGTNKRAPGVPARFSGSLLGGKAALTISGAQPEDEADYYCALWYSNHWVFGGGTKLTVLGQPKAAPSVTLFPPSSEELQANKATLVCLISDFYPGAVTVAWKADSSPVKAGVETTTPSKQSNNKYAASSYLSLTPEQWKSHRSYSCQVTHEGSTVEKTVAPTECS | –
3 | 0.8 | M1312 (bispecific antibody) chain 1: SSELTQDPAVSVALGQTVRITCTADTLSRSYASWYQQKPGQAPVLVIYRDTSRPSGIPDRFSGSSSGNTASLTITGAQAEDEADYYCATRPSSGSNFQLFGGGTKLTVLGGGGGSGGGGSGGGGSGGGGSEVQLLESGGGSVQPGGSLRLSCTVSGFSLSNYAMSWVRQAPGKGLEWIGIVSSGGTTYYASWAKGRFTISKDTSKNTVYLQMNSLRAEDTASYYCAKDLYYGPNTDYSAANLWGQGTSVTVSS chain 2: EVQLVESGGGLVQPGGSLRLSCAASGFTFSTYAMNWVRQAPGKGLEWVGRIRSKYNNYATYYADSVKGRFTISRDDSKNTLYLQMNSLRAEDTAVYYCVRHGNFGDSYVSWFAYWGQGTLVTVSSASTKGPSVFPLAPSSKSTSGGTAALGCLVKDYFPEPVTVSWNSGALTSGVHTFPAVLQSSGLYSLSSVVTVPSSSLGTQTYICNVNHKPSNTKVDKRVEPKSC chain 3: QAVVTQEPSLTVSPGGTVTLTCGSSTGAVTTSNYANWVQQKPGKSPRGLIGGTNKRAPGVPARFSGSLLGGKAALTISGAQPEDEADYYCALWYSNHWVFGGGTKLTVLGQPKAAPSVTLFPPSSEELQANKATLVCLISDFYPGAVTVAWKADSSPVKAGVETTTPSKQSNNKYAASSYLSLTPEQWKSHRSYSCQVTHEGSTVEKTVAPTECS | –
4 | 1.4 | M1394 (bispecific antibody) chain 1: SSELTQDPAVSVALGQTVRITCTADTLSRSYASWYQQKPGQAPVLVIYRDTSRPSGIPDRFSGSSSGNTASLTITGAQAEDEADYYCATRPSSGSNFQLFGGGTKLTVLGGGGGSGGGGSGGGGSGGGGSEVQLLESGGGSVQPGGSLRLSCTVSGFSLSNYAMSWVRQAPGKGLEWIGIVSSGGTTYYASWAKGRFTISRDNSKNTVYLQMNSLRAEDTASYYCAKDLYYGPNTDYSAANLWGQGTSVTVSS chain 2: EVQLVESGGGLVQPGGSLRLSCAASGFTFSTYAMNWVRQAPGKGLEWVGRIRSKYNNYATYYADSVKGRFTISRDDSKNTLYLQMNSLRAEDTAVYYCVRHGNFGDSYVSWFAYWGQGTLVTVSSASTKGPSVFPLAPSSKSTSGGTAALGCLVKDYFPEPVTVSWNSGALTSGVHTFPAVLQSSGLYSLSSVVTVPSSSLGTQTYICNVNHKPSNTKVDKRVEPKSC chain 3: QAVVTQEPSLTVSPGGTVTLTCGSSTGAVTTSNYANWVQQKPGKSPRGLIGGTNKRAPGVPARFSGSLLGGKAALTISGAQPEDEADYYCALWYSNHWVFGGGTKLTVLGQPKAAPSVTLFPPSSEELQANKATLVCLISDFYPGAVTVAWKADSSPVKAGVETTTPSKQSNNKYAASSYLSLTPEQWKSHRSYSCQVTHEGSTVEKTVAPTECS | –
5 | – | M0873 (antibody, V domains shown) VH: ESQVLESGGGSVQPGGSLRLSCTVSGFSLSNYAMSWVRQAPGKGLEYIGIVSSGGTTYYASWAKGRFTISKDTSKNTVYLQMNSLRAEDTASYYCAKDLYYGPTTYSAFNLWGQGTSVTVSS VL: SYELTQPPSVSVSPGQTASITCTADTLSRSYASWYQQKPGQSPVLVIYRDTSRPSGIPERFSGSNSGNTATLTISGTQAMDEADYYCATSDGSGSNFQLFGGGTKLTVL | EC50 (read off the curve) [4]: ~1 nM
